Data from paper PMC11009412, “Pathogenic mutations of human phosphorylation sites affect protein–protein interactions” (Nature Communications, 2024).

B1: MFAP1 (protein, UniProt P55081 2-439, looked up)
Microfibrillar-associated …: SVPSALMKQPPIQSTAGAVPVRNEKGEISMEKVKVKRYVSGKRPDYAPMESSDEEDEEFQFIKKAKEQEAEPEEQEEDSSSDPRLRRLQNRISEDVEERLARHRKIVEPEVVGESDSEVEGDAWRMEREDSSEEEEEEIDDEEIERRRGMMRQRAQERKNEEMEVMEVEDEGRSGEESESESEYEEYTDSEDEMEPRLKPVFIRKKDRVTVQEREAEALKQKELEQEAKRMAEERRKYTLKIVEEETKKELEENKRSLAALDALNTDDENDEEEYEAWKVRELKRIKRDREDREALEKEKAEIERMRNLTEEERRAELRANGKVITNKAVKGKYKFLQKYYHRGAFFMDEDEEVYKRDFSAPTLEDHFNKTILPKVMQVKNFGRSGRTKYTHLVDQDTTSFDSAWGQESAQNTKFFKQKAAGVRDVFERPSAKKRKTT
B2: PDAP1 (protein, UniProt Q13442 1-181, looked up)
28 kDa heat- and acid-stable …: MPKGGRKGGHKGRARQYTSPEEIDAQLQAEKQKAREEEEQKEGGDGAAGDPKKEKKSLDSDESEDEEDDYQQKRKGVEGLIDIENPNRVAQTTKKVTQLDLDGPKELSRREREEIEKQKAKERYMKMHLAGKTEQAKADLARLAIIRKQREEAARKKEEERKAKDDATLSGKRMQSLSLNK
B3: NPAT (protein, UniProt Q14207 1-1427, looked up)
Protein NPAT: MLLPSDVARLVLGYLQQENLISTCQTFILESSDLKEYAEHCTDEGFIPACLLSLFGKNLTTILNEYVAMKTKETSNNVPAIMSSLWKKLDHTLSQIRSMQSSPRFAGSQRARTRTGIAEIKRQRKLASQTAPASAELLTLPYLSGQFTTPPSTGTQVTRPSGQISDPSRSYFVVVNHSQSQDTVTTGEALNVIPGAQEKKAHASLMSPGRRKSESQRKSTTLSGPHSTIRNFQDPNAFAVEKQMVIENAREKILSNKSLQEKLAENINKFLTSDNNIAQVPKQTDNNPTEPETSIDEFLGLPSEIHMSEEAIQDILEQTESDPAFQALFDLFDYGKTKNNKNISQSISSQPMESNPSIVLADETNLAVKGSFETEESDGQSGQPAFCTSYQNDDPLNALKNSNNHDVLRQEDQENFSQISTSIQKKAFKTAVPTEQKCDIDITFESVPNLNDFNQRGNSNAECNPHCAELYTNQMSTETEMAIGIEKNSLSSNVPSESQLQPDQPDIPITSFVSLGCEANNENLILSGKSSQLLSQDTSLTGKPSKKSQFCENSNDTVKLKINFHGSKSSDSSEVHKSKIEINVLEPVMSQLSNCQDNSCLQSEILPVSVESSHLNVSGQVEIHLGDSLSSTKQPSNDSASVELNHTENEAQASKSENSQEPSSSVKEENTIFLSLGGNANCEKVALTPPEGTPVENSHSLPPESVCSSVGDSHPESQNTDDKPSSNNSAEIDASNIVSLKVIISDDPFVSSDTELTSAVSSINGENLPTIILSSPTKSPTKNAELVKCLSSEETVGAVVYAEVGDSASMEQSLLTFKSEDSAVNNTQNEDGIAFSANVTPCVSKDGGYIQLMPATSTAFGNSNNILIATCVTDPTALGTSVSQSNVVVLPGNSAPMTAQPLPPQLQTPPRSNSVFAVNQAVSPNFSQGSAIIIASPVQPVLQGMVGMIPVSVVGQNGNNFSTPPRQVLHMPLTAPVCNRSIPQFPVPPKSQKAQGLRNKPCIGKQVNNLVDSSGHSVGCHAQKTEVSDKSIATDLGKKSEETTVPFPEESIVPAAKPCHRRVLCFDSTTAPVANTQGPNHKMVSQNKERNAVSFPNLDSPNVSSTLKPPSNNAIKREKEKPPLPKILSKSESAISRHTTIRETQSEKKVSPTEIVLESFHKATANKENELCSDVERQKNPENSKLSIGQQNGGLRSEKSIASLQEMTKKQGTSSNNKNVLSVGTAVKDLKQEQTKSASSLITTEMLQDIQRHSSVSRLADSSDLPVPRTPGSGAGEKHKEEPIDIIKAPSSRRFSEDSSTSKVMVPPVTPDLPACSPASETGSENSVNMAAHTLMILSRAAISRTTSATPLKDNTQQFRASSRSTTKKRKIEELDERERNSRPSSKNLTNSSIPMKKKKIKKKKLPSSFPAGMDVDKFLLSLHYDE
B4: MSANTD2 (protein, UniProt Q6P1R3 1-559, looked up)
Myb/SANT-like DNA-binding …: MAAPCGSELPANSPLKIPKMEVLSPASPGGLSDGNPSLSDPSTPRGASPLGPGSAAGSGAAASGGLGLGLGGRSAASSSVSFSPGGGGGGAAAAAAAACRGMSWTPAETNALIAVWGNERLVEARYQQLEGAGTVFGSKAPGPAMYERVSRALAELGYERTPSQCRERIKTLRRCYSRVKEHGVGKRKSSYTFEQLEQVFGQGGWDAQPCQPVLINSSGLYQELESDGSTMEDYSQEDWGNHSQDLHGYPTDQELDEIPVTKRTLKIKQESSEEAQKRDIMQNIVQILESVQLKWELFQSWTDFSRLHLSNKLAIFGIGYNTRWKEDIRYHYAEISSQVPLGKRLREYFNSEKPEGRIIMTRVQKMNWKNVYYKFLEITISEARCLELHMEIDWIPIAHSKPTGGNVVQYLLPGGIPKSPGLYAIGYEECIERPLSPHMEQSSLDPGKEGRVDLETLSAQASLQVEIEPTRIIYCYLGIAEVRTLQQCLFLHFQANTKTFSKDWVGINGFLSQNCIVDPGVSPKSIYIKFVEVERDFLSAGSLVECLEKAIGYPLKFNN
B5: KNOP1 (protein, UniProt Q1ED39 1-458, looked up)
Lysine-rich nucleolar protein …: MITKTHKVDLGLPEKKKKKKVVKEPETRYSVLNNDDYFADVSPLRATSPSKSVAHGQAPEMPLVKKKKKKKKGVSTLCEEHVEPETTLPARRTEKSPSLRKQVFGHLEFLSGEKKNKKSPLAMSHASGVKTSPDPRQGEEETRVGKKLKKHKKEKKGAQDPTAFSVQDPWFCEAREARDVGDTCSVGKKDEEQAALGQKRKRKSPREHNGKVKKKKKIHQEGDALPGHSKPSRSMESSPRKGSKKKPVKVEAPEYIPISDDPKASAKKKMKSKKKVEQPVIEEPALKRKKKKKRKESGVAGDPWKEETDTDLEVVLEKKGNMDEAHIDQVRRKALQEEIDRESGKTEASETRKWTGTQFGQWDTAGFENEDQKLKFLRLMGGFKNLSPSFSRPASTIARPNMALGKKAADSLQQNLQRDYDRAMSWKYSRGAGLGFSTAPNKIFYIDRNASKSVKLED

Tested on: BirA*-FLAG-GATAD1 variants in Flp-In-293 cells
Assay: BioID proximity labelling of full-length GATAD1 variants (SILAC)
Format: cell-based, human
Settings: GATAD1 WT vs S102P, significant proteins only; for Log2_Ratio.H.L.normalized.WT_S102P_forward: forward experiment (label swap performed, sign inverted against the H/L ratio); for Log2_Ratio.H.L.normalized.WT_S102P_forward / Log2_Ratio.H.L.normalized.WT_S102P_reverse: log2 of normalized H/L ratio; for Ratio.H.L.normalized.WT_S102P_forward: forward experiment; for Log2_Ratio.H.L.normalized.WT_S102P_reverse / Ratio.H.L.normalized.WT_S102P_reverse: reverse experiment
Excerpt: The GATAD1 gene variants were ordered in a pTwist ENTR Kozak vector from Twist Bioscience. The genes were then transferred to a pDEST_pcDNA5_BirA_FLAG_Nterm vector[97] using the Gateway Clonase II system (Thermo Fisher Scientific). The resulting vectors, pEXPR_GATAD1-WT_N-term_BirA_FLAG, pEXPR_GATAD1-S102P_N-term_BirA_FLAG, pEXPR_GATAD1-S102D_N-term_BirA_FLAG, and pEXPR_GATAD1-S102A_N-term_BirA_FLAG, were used to generate tetracycline-inducible stable Flp-In^TM-293 T-REx cells. A 6-well plate was co-transfected with 0.5 µg of the pEXPR plasmid and 1 µg of the pOG44 Flp-recombinase expression vector (Thermo Fisher Scientific) using 4.5 µg of PEI (Polysciences) as a transfection reagent. The following day, the cells were trypsinized and transferred to a 10 cm dish containing DMEM supplemented with 10% FCS and 200 µg/ml hygromycin B (Invivogen) for selection. The cells were cultured for approximately 18 days with media exchange every 3 days until visible colonies were observed. After around 18 days, the colonies were trypsinized and transferred to another 10 cm dish for further characterization and experiments.
Stable Flp-In^TM-293 cell lines expressing GATAD1 variants were cultured using SILAC light (Lys0, Arg0) and SILAC heavy (Lys8, Arg10) media, as explained in the cell culture section. After full labeling, cells were split into 15 cm dishes and were treated with 1 μg/mL tetracycline for 24 h to induce the expression of GATAD1. After the induction period, cells were incubated with 50 μM biotin overnight for proximity biotinylation. As a control, wild-type GATAD1 cells, without biotin or tetracycline addition, were used. Samples were multiplexed, as shown in Supplementary Fig. 41A with both forward and reverse label swap (n = 2). Cells were then lysed in lysis buffer (50 mM Tris-HCl pH 7.5, 150 mM NaCl, 1% Triton X-100, 1 mM EDTA, 1 mM EGTA, 0.1% SDS) with freshly added protease inhibitors and 1% sodium deoxycholate. To digest the excess DNA, 1 μl of Benzonase was added, and the samples were incubated for 20 min at 37 °C. Biotinylated proteins were enriched for 3 h at 4 °C using streptavidin-sepharose beads (GE Cat# 17-5113-01). Beads were pre-washed twice with 0.01% BSA and twice with lysis buffer. After enrichment, the beads were washed one time with lysis buffer, two times with washing buffer (50 mM HEPES-KOH pH 8.0, 100 mM KCl, 10% glycerol, 2 mM EDTA, 0.1% NP-40), and six times with 50 mM ammonium bicarbonate. Beads were resuspended in ammonium bicarbonate, and an on-bead protein digest with 1 μg of trypsin followed overnight. The next day, the digested proteins were transferred to a fresh tube and were incubated with 10 mM DTT for 30 min at 37 °C and with 55 mM iodoacetamide for 20 min at 37 °C in the dark. Samples were desalted with StageTips.
Peptides were separated using reversed-phase liquid chromatography (EASY nLC II 1200, Thermo Fisher Scientific) with self-made C18 microcolumns (20 cm long) packed with ReproSil-Pur C18-AQ 1.9 μm resin (Dr. Maisch, cat# r119.aq.0001). The chromatography system was coupled online to the electrospray ion source (Proxeon) of an Orbitrap Exploris 480 mass spectrometer (Thermo Fisher Scientific). The mobile phase consisted of buffer A (0.1% formic acid and 5% acetonitrile) and buffer B (0.1% formic acid and 80% acetonitrile). Peptides were eluted using a gradient with increasing concentrations of buffer B over 110 minutes, at a flow rate of 250 nl/min. Mass spectrometry data was acquired in data-dependent mode with settings for one full scan (resolution: 60,000; m/z range: 350–1600; normalized AGC target: 300%; maximum injection time: 10 ms), followed by top 20 MS/MS scans using higher-energy collisional dissociation (resolution: 15,000; m/z range: 200–2000; normalized AGC target: 100%; maximum injection time: 120 ms; isolation width: 1.3 m/z; normalized collision energy: 28%).
Raw files were analyzed with MaxQuant, version 2.0.3.0. […]

| Molecule | Log2_Ratio.H.L.normalized.WT_S102P_forward | Ratio.H.L.normalized.WT_S102P_forward | Log2_Ratio.H.L.normalized.WT_S102P_reverse | Ratio.H.L.normalized.WT_S102P_reverse |
| --- | --- | --- | --- | --- |
| B1 | 1.854 | 0.2766 | 1.161 | 2.2368 |
| B2 | 1.555 | 0.3404 | 1.001 | 2.0014 |
| B3 | 1.209 | 0.4326 | 1.214 | 2.3205 |
| B4 | 1.423 | 0.373 | 1.156 | 2.2282 |
| B5 | 1.624 | 0.3245 | 1.083 | 2.1181 |
